# Article PMC8761493, “New insights into the phosphorylation of the threonine motif of the β1 integrin cytoplasmic domain” (Life Science Alliance, 2022)
# Assays:
# [1] = biological target: SNX17 (UniProt Q8BVL3); test: biotinylated peptide pull-down from cell lysate; settings: reference: β1-WT tail peptide; sites T788,T789
# [2] = biological target: kindlin-2 (UniProt Q8CIB5); test: biotinylated peptide pull-down from cell lysate; settings: reference: β1-WT tail peptide; sites T788,T789
# [3] = biological target: kindlin-2 (UniProt Q8CIB5); test: microscale thermophoresis, Atto488-labeled peptides; settings: reference: β1-WT tail peptide; sites T788,T789
# [4] = biological target: talin-1 head domain (THD) head domain (UniProt P26039); test: as above; settings: reference: β1-WT tail peptide; sites T788,T789
# [5] = biological target: kindlin-2 (UniProt Q8CIB5); test: streptavidin-bead peptide pull-down, Western blot; settings: reference: β1-WT tail peptide; sites T788,T789
# [6] = biological target: talin-1 head domain (THD) head domain (UniProt P26039); test: streptavidin-bead peptide pull-down, Western blot; settings: reference: β1-WT tail peptide; sites T788,T789
# [7] = biological target: T1, kindlin-2 (Homo sapiens, UniProt Q96AC1); test: Microscale thermophoresis (MST) affinity measurement; type: binding; settings: compared with β1-WT tails
# T1 sequence (Q96AC1 1-680): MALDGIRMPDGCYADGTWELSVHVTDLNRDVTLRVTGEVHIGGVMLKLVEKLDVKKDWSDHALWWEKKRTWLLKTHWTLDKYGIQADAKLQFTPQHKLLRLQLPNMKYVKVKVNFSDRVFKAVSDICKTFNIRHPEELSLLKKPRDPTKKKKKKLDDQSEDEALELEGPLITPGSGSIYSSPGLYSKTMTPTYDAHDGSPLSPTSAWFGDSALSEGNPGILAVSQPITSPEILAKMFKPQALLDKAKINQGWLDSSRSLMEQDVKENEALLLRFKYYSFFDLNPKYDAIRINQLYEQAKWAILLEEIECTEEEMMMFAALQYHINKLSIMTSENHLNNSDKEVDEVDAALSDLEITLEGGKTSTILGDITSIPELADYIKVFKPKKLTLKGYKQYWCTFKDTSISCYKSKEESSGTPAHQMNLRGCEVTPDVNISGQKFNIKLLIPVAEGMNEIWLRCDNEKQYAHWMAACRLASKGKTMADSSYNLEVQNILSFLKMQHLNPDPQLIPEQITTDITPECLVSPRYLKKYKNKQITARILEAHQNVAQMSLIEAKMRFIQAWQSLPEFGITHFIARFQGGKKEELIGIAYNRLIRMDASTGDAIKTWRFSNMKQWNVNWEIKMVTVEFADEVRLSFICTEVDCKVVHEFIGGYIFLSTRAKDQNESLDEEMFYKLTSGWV
# Description: All MST measurements were performed on a Monolith NT.115 red-blue (Nanotemper) using premium-coated capillaries to reduce non-specific interaction of the proteins with the glass surface. Both interaction partners (ligand and receptor) were transferred into MST buffer (20 mM Tris, pH 7.5, 200 mM sodium chloride, 1 mM tris(2-carboxyethyl)phosphine [TCEP], 0.05% Tween-20) to avoid artifacts derived from buffer mismatches. […] The measurements were carried out at 20% light emitting diode power and 20% and 40% MST power. Data were analyzed using the MO Affinity Analysis Software (Nanotemper).
# [8] = system: recombinant kindlin-2; test: Streptavidin-bead peptide pull-down with recombinant protein; type: binding; settings: N-terminally desthio biotinylated peptide on streptavidin beads; kindlin-2 2.5 nM; THD absent or present; 2 h at 4°C; Western blot
# Description: (§1) Before use, peptides were immobilized on 25 μl Dynabeads MyOne Streptavidin C1 (10 mg/ml; Invitrogen) in Mammalian Protein Extraction Reagent (Thermo Fisher Scientific) containing protease inhibitors (cOmplete; Roche) and phosphatase inhibitors (Phosphatase Inhibitor Cocktail 2 and 3; Sigma-Aldrich) for 3 h at 4°C. Cell lysates were prepared with MPER containing protease and phosphatase inhibitors and 0.5 mg of supernatant was incubated with the peptide-coated beads at 4°C under constant rotation. For pull-downs with recombinant proteins, synthetic β1 integrin tail peptides were immobilized on 25 μl Dynabeads MyOne Streptavidin C1 (10 mg/ml; Invitrogen) for 3 h at 4°C, incubated with 2% BSA in Mammalian Protein Extraction Reagent (Thermo Scientific Scientific) for 30 min at 4°C to block unspecific binding before adding kindlin-2 or THD (conc 2.5 and 8.5 nM, respectively) and further incubation on a rotator for 2 h at 4°C. After washing the beads three times with lysis buffer, the proteins bound to the beads were eluted using Laemmli buffer, separated on a 10% SDS–PAGE, and analyzed by Western blotting.
# [9] = system: endogenous SNX17; test: Peptide pull-down from whole cell lysate, Western blot; type: binding; settings: densitometry, compared with β1-WT, mean ± SD, n = 5, SD
# Description: as §1
# [10] = system: endogenous kindlin-2; test: as above; type: binding; settings: densitometry, compared with β1-WT, mean ± SD, n = 5, SD
# Description: as §1
# [11] = Mass spectrometry-based measurement of the peptide's phosphorylation state after incubation in whole cell lysates; type: in vitro ADME; settings: whole cell lysate in MPER with protease and phosphatase inhibitors, 4°C; read-out mass spectrometry
Molecule,percent of reference [1] [%],percent of reference [2] [%],binding against the reference [3],binding against the reference [4],binding against the reference [5],binding against the reference [6],affinity of kindlin-2 for the tail peptide (in words) [7],pull-down of recombinant kindlin-2 (in words) [8],"SNX17 binding to the peptide, reduced to [9] [%]","kindlin-2 binding to the peptide, reduced to [10] [%]",reduction of the peptide's phosphorylation after incubation in whole cell lysates [11]
"β1 integrin (cytoplasmic tail, β1-tail) cytoplasmic tail (from UniProt P09055) β1-pTpT tail peptide",60,27,lost,same,lost,same,,,,,
CC[C@H](C)[C@H](NC(=O)[C@@H]1CCCN1C(=O)[C@H](CC(N)=O)NC(=O)[C@H](CCC(=O)O)NC(=O)CNC(=O)[C@@H](NC(=O)[C@H](CC(=O)O)NC(=O)[C@H](Cc1c[nH]c2ccccc12)NC(=O)[C@H](CCCCN)NC(=O)[C@H](C)NC(=O)[C@H](CC(N)=O)NC(=O)[C@H](CCSC)NC(=O)[C@H](CCCCN)NC(=O)[C@H](CCC(=O)O)NC(=O)[C@H](CCCCN)NC(=O)[C@H](CCC(=O)O)NC(=O)[C@H](Cc1ccccc1)NC(=O)[C@H](CCCCN)NC(=O)[C@H](C)NC(=O)[C@H](Cc1ccccc1)NC(=O)[C@H](CCC(=O)O)NC(=O)[C@H](CCCNC(=N)N)NC(=O)[C@H](CCCNC(=N)N)NC(=O)[C@H](CC(=O)O)NC(=O)[C@@H](N)Cc1c[nH]cn1)[C@@H](C)O)C(=O)N[C@@H](Cc1ccc(O)cc1)C(=O)N[C@@H](CCCCN)C(=O)N[C@@H](CO)C(=O)N[C@@H](C)C(=O)N[C@H](C(=O)N[C@H](C(=O)N[C@H](C(=O)N[C@H](C(=O)N[C@H](C(=O)N[C@@H](CC(N)=O)C(=O)N1CCC[C@H]1C(=O)N[C@@H](CCCCN)C(=O)N[C@@H](Cc1ccc(O)cc1)C(=O)N[C@@H](CCC(=O)O)C(=O)NCC(=O)N[C@@H](CCCCN)C(=O)O)C(C)C)C(C)C)[C@@H](C)OP(=O)(O)O)[C@@H](C)OP(=O)(O)O)C(C)C [β1-pTpT],,,,,,,not measurable anymore,not,60 ± 11,27 ± 11,around 40%
